Reference: US20190233517A1 (published 2019)

T1: cynomolgus CD20 on transiently transfected HEK 293 cells (cynomolgus, UniProt M4ZHZ6 1-297)
T1 construct: whole, on cells; also called cynoCD20
T1 sequence: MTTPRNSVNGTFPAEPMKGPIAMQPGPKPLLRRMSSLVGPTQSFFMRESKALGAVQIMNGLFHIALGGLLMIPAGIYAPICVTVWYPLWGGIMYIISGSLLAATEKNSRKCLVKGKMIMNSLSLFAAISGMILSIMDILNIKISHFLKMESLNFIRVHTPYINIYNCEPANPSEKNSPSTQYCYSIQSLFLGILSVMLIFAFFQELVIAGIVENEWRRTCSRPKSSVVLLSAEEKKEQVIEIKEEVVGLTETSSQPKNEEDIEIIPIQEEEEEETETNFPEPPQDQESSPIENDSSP

T2: CD20 on the cell surface of Raji cells (human, UniProt P11836 1-297)
T2 construct: whole, on cells; also called CD20 (Raji)
T2 sequence (looked up): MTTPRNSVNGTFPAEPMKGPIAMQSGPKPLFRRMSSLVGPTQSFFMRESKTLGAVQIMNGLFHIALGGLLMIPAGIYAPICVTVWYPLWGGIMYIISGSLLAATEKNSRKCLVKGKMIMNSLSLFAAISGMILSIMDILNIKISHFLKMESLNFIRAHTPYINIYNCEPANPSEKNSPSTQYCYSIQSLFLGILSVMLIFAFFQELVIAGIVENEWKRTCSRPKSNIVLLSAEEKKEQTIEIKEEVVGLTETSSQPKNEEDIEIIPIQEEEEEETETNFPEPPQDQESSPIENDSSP


Experiments:
[1] = target: T1, cynomolgus CD20 on transiently …; experiment: flow cytometry on HEK 293 cells transfected with cynoCD20
Description: (§1) Raji cell was used for detecting human B cell binding. […] Cells were washed in PBS buffer containing 2% FBS. […] Cells were washed and signal was detected with a BD FACSVerse flow cytometer according to manufacture's protocols.

[2] = target: T2, CD20 on the cell surface of Raji cells; experiment: flow cytometry on Raji cells
Description: as §1

[3] = target: T2, CD20 on the cell surface of Raji cells; experiment: flow cytometry on Raji cells, 100 nM
membrane EGFR = membrane EGFR (human, UniProt P00533 25-1210); experiment: cell-based or functional assay

Binding Intensity by FACS (MFI) [3] [MFI] | EGFR Depletion (%), H441 cell, FACS after >16 hrs at 37 C (membrane EGFR) [%] | further results | Binder
 |  | binding result [1]: binds; binding result [2]: binds | FIT018a CD20 (Ofatumumab)/CD3 mAb (bispecific antibody, human IgG1, kappa, lambda, L234A L235A) chain 1: not shown chain 2: EVQLVESGGGLVQPGRSLRLSCAASGFTFNDYAMHWVRQAPGKGLEWVSTISWNSGSIGYADSVKGRFTISRDNAKKSLYLQMNSLRAEDTALYYCAKDIQYGNYYYGMDVWGQGTTVTVSSASTKGPSVFPLAPSSKSTSGGTAALGCLVKDYFPEPVTVSWNSGALTSGVHTFPAVLQSSGLYSLSSVVTVPSSSLGTQTYICNVNHKPSNTKVDKKVEPKSC chain 3: ELVVTQEPSLTVSPGGTVTLTCRSSTGAVTTSNYANWVQQKPGQAPRGLIGGTNKRAPGTPARFSGSLLGGKAALTLSGVQPEDEAEYYCALWYSNLWVFGGGTKLTVLGQPKAAPSVTLFPPSSEELQANKATLVCLISDFYPGAVTVAWKADSSPVKAGVETTTPSKQSNNKYAASSYLSLTPEQWKSHRSYSCQVTHEGSTVEKTVAPTECS
274 |  |  | OKT3/Ofatumumab FIT8-Ig (bispecific antibody, human IgG1, kappa, FIT-Ig of 3 polypeptides, two copies of each chain, human IgG1 Fc) chain 1: not shown chain 2: not shown chain 3: not shown
 | 65.9 |  | FIT013a cMet (h1332 (13.3.2L-A91T,H-42K,S97T))/EGFR (panitumumab) (bispecific antibody, human IgG1, kappa) chain 1: not shown chain 2: QVQLVQSGAEVKKPGASVKVSCKASGYTFTSYGFSWVRQAPGQGLEWMGWISASNGNTYYAQKLQGRVTMTTDTSTSTAYMELRSLRSDDTAVYYCARVYADYADYWGQGTLVTVSSASTKGPSVFPLAPSSKSTSGGTAALGCLVKDYFPEPVTVSWNSGALTSGVHTFPAVLQSSGLYSLSSVVTVPSSSLGTQTYICNVNHKPSNTKVDKKVEPKSC chain 3: not shown
291 |  |  | OKT3/Ofatumumab FIT7-Ig (bispecific antibody, human IgG1, kappa, FIT-Ig of 3 polypeptides, two copies of each chain, human IgG1 Fc) chain 1: not shown chain 2: not shown chain 3: not shown
 | 0 |  | cMet antibody h1332 (13.3.2L-A91T,H-42K,S97T) (antibody, V domains shown) VH: QVQLVQSGAEVKKPGASVKVSCKASGYTFTSYGFSWVRQAPGQGLEWMGWISASNGNTYYAQKLQGRVTMTTDTSTSTAYMELRSLRSDDTAVYYCARVYADYADYWGQGTLVTVSS VL: DIQMTQSPSSVSASVGDRVTITCRASQGINTWLAWYQQKPGKAPKLLIYAASSLKSGVPSRFSGSGSGTDFTLTISSLQPEDFATYYCQQANSFPLTFGGGTKVEIK
